According to PMC5225881, “Open and compressed conformations of Francisella tularensis ClpP” (Proteins, 2016):
Several values for one entry are separate records, joined by “and”; a condition that tells them apart may be missing. Equal entries are not always repeated.

Molecular target: the molecule itself
Assay: native gel or EMSA; purified sample applied to a native gel; conditions not given

B1: Francisella tularensis caseinolytic protease catalytic subunit P (ClpP) (enzyme)
chain: not shown
notes: also called FtClpP; FtClpP:I; copies: 14
stoichiometry N: 7 and 14
